No end group written: not given here.
Legend:
Assay in all cases: Kinase Profiling Assay
Assay type in all cases: biochemical
Conditions in all cases: peptide 100 μM
[1] = target: Abl(h) (Homo sapiens, UniProt P00519)
In short: (§1)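 Activity remaining relative to an uninhibited control was determined by scintillation counting of labeled substrate bound to a negatively charged filter. Radiolabeled phosphate came from ATP; the substrate carried positive charge. Duplicate measurements, within a 266-kinase human panel.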

[2] = target: EGFR(T790M, L858R)(h) (Homo sapiens, UniProt P00533, L858R/T790M)
In short: as §1

[3] = target: T1, HIPK1(h) (Homo sapiens, UniProt Q86Z02)
T1 construct: purchased Millipore
In short: as §1

[4] = target: T2, Haspin(h) (Homo sapiens, UniProt Q8TF76)
T2 construct: purchased Millipore
T2 sequence (Q8TF76 1-798): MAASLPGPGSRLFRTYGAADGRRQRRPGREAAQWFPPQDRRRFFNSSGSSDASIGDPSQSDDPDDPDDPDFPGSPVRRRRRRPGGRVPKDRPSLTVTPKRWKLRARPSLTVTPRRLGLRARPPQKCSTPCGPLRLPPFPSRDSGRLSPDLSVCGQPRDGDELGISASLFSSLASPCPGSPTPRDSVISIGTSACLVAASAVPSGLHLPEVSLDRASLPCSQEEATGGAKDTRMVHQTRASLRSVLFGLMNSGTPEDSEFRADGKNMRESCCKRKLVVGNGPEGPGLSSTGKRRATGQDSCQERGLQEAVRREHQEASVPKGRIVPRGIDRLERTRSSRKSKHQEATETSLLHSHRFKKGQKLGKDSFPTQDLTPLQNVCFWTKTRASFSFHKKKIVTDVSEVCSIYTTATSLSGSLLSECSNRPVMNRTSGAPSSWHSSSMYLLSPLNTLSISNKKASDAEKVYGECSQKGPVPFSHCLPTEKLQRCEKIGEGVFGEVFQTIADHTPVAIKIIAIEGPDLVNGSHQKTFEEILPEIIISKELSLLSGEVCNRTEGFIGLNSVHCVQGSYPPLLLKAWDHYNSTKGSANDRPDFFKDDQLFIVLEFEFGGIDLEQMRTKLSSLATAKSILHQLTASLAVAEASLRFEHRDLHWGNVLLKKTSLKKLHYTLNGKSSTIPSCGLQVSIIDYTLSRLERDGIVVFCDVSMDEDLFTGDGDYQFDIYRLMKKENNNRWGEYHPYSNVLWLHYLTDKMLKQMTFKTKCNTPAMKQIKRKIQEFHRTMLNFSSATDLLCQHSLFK
In short: as §1

[5] = target: T3, IKKβ(h) (Homo sapiens, UniProt O14920)
T3 construct: purchased Millipore
T3 sequence (O14920 1-756): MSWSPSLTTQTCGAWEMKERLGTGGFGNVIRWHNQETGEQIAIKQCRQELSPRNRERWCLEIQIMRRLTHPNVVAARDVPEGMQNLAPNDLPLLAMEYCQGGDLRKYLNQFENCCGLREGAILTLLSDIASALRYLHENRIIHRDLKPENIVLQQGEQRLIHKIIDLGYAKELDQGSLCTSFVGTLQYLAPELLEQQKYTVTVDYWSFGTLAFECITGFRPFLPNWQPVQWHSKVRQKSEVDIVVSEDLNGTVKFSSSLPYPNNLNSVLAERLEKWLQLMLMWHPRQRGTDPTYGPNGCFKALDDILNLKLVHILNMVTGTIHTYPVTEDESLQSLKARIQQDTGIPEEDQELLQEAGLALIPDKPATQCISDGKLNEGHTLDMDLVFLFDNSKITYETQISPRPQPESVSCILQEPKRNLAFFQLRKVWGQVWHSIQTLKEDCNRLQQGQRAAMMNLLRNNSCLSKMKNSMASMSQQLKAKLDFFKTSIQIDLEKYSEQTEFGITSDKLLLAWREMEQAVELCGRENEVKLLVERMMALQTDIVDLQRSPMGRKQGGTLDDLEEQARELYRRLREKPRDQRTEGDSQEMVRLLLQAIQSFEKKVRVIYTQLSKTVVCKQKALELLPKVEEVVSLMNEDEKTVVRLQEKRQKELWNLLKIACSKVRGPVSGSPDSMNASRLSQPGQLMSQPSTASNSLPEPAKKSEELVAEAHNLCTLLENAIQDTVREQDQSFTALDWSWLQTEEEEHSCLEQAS
In short: as §1

[6] = target: T4, MAPKAP-K2(h) (Homo sapiens, UniProt P49137)
T4 construct: purchased Millipore
T4 sequence (P49137 whole entry): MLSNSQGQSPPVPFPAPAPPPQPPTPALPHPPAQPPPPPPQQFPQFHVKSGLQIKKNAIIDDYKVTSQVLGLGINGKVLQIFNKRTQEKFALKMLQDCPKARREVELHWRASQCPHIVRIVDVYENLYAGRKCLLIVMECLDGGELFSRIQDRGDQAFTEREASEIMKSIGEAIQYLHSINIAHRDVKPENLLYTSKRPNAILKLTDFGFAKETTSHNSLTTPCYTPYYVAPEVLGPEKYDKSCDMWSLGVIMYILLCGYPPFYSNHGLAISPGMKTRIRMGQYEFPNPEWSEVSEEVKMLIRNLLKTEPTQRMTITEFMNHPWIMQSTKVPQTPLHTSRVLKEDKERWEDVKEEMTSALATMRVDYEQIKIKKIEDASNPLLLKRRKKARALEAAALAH
In short: as §1

[7] = target: T5, MST2(h) (Homo sapiens, UniProt Q13188)
T5 construct: purchased Millipore
T5 sequence (Q13188 1-491): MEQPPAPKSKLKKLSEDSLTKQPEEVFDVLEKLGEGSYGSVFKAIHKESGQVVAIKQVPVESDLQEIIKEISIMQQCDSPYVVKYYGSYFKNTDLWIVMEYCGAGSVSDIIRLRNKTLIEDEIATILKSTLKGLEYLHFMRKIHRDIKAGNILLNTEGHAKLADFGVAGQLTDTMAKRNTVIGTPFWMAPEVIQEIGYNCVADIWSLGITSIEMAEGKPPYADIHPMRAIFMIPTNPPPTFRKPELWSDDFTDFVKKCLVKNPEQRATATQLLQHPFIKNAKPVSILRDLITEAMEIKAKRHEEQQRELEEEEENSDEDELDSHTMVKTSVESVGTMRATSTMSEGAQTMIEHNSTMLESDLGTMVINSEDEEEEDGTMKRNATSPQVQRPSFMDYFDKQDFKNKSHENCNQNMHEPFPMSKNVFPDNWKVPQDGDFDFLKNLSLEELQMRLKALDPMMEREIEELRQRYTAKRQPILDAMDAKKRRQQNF
In short: as §1

[8] = target: PDGFRβ(h) (Homo sapiens, UniProt P09619)
Sequence of PDGFRβ(h) (P09619 33-1106): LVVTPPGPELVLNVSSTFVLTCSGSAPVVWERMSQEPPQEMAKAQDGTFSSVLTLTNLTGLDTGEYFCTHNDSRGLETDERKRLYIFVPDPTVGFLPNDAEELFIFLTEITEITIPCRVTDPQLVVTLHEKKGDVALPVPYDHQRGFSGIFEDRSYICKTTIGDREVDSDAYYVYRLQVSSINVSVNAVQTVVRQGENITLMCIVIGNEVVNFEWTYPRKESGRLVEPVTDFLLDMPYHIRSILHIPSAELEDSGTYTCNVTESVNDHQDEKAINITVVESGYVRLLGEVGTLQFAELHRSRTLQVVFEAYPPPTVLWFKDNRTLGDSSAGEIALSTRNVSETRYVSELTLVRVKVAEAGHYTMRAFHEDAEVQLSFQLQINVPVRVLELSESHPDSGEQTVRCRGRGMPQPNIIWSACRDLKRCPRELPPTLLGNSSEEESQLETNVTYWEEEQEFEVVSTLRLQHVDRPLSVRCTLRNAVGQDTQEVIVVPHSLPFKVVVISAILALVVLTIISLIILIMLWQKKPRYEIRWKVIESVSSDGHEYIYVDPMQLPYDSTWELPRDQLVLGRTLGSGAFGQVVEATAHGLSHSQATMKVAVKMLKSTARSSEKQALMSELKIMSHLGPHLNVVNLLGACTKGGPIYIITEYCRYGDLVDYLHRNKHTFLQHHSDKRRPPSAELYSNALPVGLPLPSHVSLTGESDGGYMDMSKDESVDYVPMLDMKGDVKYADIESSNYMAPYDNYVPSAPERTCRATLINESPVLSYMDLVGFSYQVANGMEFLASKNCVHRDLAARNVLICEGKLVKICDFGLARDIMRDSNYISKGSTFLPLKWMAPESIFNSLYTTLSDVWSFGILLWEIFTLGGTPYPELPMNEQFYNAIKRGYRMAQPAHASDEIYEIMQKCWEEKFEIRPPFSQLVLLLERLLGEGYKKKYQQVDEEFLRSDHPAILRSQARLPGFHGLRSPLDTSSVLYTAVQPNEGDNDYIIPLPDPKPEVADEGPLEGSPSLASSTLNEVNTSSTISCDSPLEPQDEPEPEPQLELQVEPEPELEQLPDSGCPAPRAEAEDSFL
In short: as §1

[9] = target: T6, Src(1-530)(h) (Homo sapiens, UniProt P12931)
T6 construct: Src(1-530)(h); purchased Millipore
In short: as §1

[10] = target: WNK2(h) (Homo sapiens, UniProt Q9Y3S1)
Sequence of WNK2(h) (Q9Y3S1 whole entry): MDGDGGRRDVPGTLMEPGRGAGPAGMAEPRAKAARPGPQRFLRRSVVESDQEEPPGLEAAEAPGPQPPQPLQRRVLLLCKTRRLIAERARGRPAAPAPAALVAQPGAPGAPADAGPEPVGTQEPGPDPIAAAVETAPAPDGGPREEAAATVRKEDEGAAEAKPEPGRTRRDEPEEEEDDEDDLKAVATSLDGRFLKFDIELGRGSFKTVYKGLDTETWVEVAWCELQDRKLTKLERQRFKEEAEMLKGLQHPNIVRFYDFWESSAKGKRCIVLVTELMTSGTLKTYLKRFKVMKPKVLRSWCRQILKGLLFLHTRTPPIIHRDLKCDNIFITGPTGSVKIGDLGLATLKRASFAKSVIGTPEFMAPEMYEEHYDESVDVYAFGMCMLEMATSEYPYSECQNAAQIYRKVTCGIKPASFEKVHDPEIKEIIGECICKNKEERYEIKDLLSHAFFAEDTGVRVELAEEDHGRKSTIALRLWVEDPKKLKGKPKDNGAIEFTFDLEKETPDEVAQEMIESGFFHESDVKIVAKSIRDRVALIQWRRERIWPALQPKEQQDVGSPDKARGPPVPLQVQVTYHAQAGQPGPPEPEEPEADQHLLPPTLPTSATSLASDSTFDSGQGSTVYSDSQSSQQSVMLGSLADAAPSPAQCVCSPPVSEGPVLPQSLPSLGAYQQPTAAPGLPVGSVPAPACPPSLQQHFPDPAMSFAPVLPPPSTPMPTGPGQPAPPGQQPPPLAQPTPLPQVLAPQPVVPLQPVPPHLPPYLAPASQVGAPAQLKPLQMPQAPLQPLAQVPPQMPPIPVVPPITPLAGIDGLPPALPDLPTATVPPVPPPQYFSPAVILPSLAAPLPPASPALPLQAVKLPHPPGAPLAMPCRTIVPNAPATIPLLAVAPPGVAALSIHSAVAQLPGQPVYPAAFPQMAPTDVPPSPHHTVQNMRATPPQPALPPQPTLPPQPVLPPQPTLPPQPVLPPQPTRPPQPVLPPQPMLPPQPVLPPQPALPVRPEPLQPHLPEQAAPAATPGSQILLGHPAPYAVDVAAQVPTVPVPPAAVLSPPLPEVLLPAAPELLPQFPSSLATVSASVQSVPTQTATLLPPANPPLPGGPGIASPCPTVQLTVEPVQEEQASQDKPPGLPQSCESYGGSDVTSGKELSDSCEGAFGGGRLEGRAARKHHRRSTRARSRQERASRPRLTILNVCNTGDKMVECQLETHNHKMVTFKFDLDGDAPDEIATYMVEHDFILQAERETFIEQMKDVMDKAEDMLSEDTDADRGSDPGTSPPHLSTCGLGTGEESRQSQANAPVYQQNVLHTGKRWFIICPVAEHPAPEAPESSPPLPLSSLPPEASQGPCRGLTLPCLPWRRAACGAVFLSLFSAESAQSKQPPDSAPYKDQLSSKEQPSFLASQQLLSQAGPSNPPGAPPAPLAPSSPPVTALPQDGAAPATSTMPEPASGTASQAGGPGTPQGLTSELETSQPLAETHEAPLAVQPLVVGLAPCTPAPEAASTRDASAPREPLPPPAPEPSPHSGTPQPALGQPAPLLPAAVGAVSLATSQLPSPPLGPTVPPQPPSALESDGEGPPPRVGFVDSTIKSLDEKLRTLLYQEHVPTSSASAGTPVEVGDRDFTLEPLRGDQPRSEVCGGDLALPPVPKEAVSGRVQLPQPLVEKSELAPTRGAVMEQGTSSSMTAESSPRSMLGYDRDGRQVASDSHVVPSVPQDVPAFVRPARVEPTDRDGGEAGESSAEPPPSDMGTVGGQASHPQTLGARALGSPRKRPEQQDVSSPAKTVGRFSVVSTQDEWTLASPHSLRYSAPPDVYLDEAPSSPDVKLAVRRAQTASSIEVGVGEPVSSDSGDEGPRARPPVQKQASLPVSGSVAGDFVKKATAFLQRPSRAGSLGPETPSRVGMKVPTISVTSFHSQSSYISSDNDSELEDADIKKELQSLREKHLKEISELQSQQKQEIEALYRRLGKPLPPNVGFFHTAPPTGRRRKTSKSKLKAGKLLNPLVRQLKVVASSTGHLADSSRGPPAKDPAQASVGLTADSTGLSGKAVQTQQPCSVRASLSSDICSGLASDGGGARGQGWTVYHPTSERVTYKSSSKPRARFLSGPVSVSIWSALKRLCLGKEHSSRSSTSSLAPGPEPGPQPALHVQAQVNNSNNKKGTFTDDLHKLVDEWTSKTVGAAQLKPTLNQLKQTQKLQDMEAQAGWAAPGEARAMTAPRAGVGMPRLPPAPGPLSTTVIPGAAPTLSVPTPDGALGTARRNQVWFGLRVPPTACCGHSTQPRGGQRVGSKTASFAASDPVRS
In short: as §1

[11] = target: cSRC(h) (Homo sapiens, UniProt P12931)
In short: as §1

Sequence of Abl(h) (P00519 whole entry): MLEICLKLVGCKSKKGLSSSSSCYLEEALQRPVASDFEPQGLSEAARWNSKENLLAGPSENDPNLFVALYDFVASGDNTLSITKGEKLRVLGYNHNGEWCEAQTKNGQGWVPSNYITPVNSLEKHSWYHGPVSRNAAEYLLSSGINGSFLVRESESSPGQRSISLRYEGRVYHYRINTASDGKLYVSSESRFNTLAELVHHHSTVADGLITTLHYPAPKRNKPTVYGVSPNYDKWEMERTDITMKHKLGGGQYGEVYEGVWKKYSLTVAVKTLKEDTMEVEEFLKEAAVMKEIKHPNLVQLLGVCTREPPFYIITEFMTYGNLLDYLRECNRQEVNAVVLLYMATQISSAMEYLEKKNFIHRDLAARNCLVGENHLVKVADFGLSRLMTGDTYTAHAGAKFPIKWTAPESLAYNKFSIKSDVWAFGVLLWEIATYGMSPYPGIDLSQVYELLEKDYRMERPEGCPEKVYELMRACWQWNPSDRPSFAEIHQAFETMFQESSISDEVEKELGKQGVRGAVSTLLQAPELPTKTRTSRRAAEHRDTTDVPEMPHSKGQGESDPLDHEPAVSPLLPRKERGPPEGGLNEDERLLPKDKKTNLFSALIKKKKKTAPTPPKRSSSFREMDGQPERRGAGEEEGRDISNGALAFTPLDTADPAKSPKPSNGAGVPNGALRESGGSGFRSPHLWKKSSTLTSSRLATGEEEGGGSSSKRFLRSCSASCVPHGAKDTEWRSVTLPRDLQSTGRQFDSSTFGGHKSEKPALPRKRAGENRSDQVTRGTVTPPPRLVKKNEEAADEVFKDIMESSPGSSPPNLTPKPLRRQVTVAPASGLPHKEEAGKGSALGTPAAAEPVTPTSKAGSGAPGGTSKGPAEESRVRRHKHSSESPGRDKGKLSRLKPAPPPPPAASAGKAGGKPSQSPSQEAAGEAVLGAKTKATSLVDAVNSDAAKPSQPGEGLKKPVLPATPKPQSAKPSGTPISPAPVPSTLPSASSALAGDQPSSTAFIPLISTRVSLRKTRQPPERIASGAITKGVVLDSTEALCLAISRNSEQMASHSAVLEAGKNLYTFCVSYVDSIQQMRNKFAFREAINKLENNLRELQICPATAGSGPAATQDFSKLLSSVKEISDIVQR

| Sequence | % activity [1] [%] | % activity [2] [%] | % activity [3] [%] | % activity [4] [%] | % activity [5] [%] | % activity [6] [%] | % activity [7] [%] | % activity [8] [%] | % activity [9] [%] | % activity [10] [%] | % activity [11] [%] |
| --- | --- | --- | --- | --- | --- | --- | --- | --- | --- | --- | --- |
| HRRIKAWLKKIKALARQLGVAA (Mammal) [MMI-0500] | 16 | 53 | 47 | 25 | 71 | 9 | 2 | 40 | 21 | 8 | 30 |
| YARAAARQARAKALNRQLGVA (Mammal) [MMI-0200] |  | 108 |  | 71 |  | 35 |  | 137 | 75 | 94 | 32 |
| YARAAARQARAKALARQLGVAA [MMI-0100] |  |  | 94 | 127 |  | 19 | 98 |  |  | 95 |  |
| FAKLAARLYRKALARQLGVAA [MMI-0300] | 69 | 85 | 74 | 48 | 84 | 5 | 19 | 81 | 23 | 64 | 26 |
| KAFAKLAARLYRKALARQLGVAA [MMI-0400] | 84 | 78 | 91 | 36 | 84 | 5 | 11 | 53 | 19 | 54 | 14 |
